The source of these data is US20200240995.

Numbering of substitutions follows the chain as printed.

Data set [1] addresses Dual luciferase reporter (DLR) with N(ε)-acetyl-lysine at K529 of the Firefly enzyme.
Data set [2] concerns the target Dual luciferase reporter (DLR) with N(ε)-allyl-oxycarbonyl-lysine at K529 of the Firefly enzyme.
Data set [3] addresses Dual luciferase reporter (DLR) with N(ε)-crotonyl-lysine at K529 of the Firefly enzyme.
In data set [4] the target is Dual luciferase reporter (DLR) with N(ε)-tert.-butyl-oxycarbonyl-lysine at K529 of the Firefly enzyme.
Dual luciferase reporter (DLR) with N(ε)-tert.-butyl-oxycarbonyl-lysine at K529 of the Firefly enzyme, sequence (chain, as listed by the source): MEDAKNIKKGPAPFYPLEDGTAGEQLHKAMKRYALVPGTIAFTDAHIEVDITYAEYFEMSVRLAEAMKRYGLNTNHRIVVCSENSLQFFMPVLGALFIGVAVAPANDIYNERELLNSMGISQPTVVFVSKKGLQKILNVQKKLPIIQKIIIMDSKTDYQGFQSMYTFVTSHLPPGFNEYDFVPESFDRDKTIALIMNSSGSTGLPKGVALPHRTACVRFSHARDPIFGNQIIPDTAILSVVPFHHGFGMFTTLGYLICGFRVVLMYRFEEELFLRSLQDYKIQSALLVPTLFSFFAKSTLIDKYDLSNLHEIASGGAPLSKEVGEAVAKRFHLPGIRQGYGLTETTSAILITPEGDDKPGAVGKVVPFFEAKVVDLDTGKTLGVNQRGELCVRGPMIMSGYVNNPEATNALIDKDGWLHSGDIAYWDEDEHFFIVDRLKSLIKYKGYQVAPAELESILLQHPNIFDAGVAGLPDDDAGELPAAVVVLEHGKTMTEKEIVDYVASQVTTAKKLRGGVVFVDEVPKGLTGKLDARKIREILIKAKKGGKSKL

Dual luciferase reporter (DLR) with N(ε)-acetyl-lysine at K529 of the Firefly enzyme, sequence (chain, as listed by the source): as above
Dual luciferase reporter (DLR) with N(ε)-allyl-oxycarbonyl-lysine at K529 of the Firefly enzyme, sequence (chain, as listed by the source): as above
Dual luciferase reporter (DLR) with N(ε)-crotonyl-lysine at K529 of the Firefly enzyme, sequence (chain, as listed by the source): as above

B1: Dealocase-1 (protein)
chain: KPRVLVLTGAGISAESGIRTFRAADGLWEEHRVEDVSTPEGFDRDPELVQAFWNAWRRQLQQPEIQPNAAHLALAKLQDALGDRFLLVTQNVDNLHERAGNTNVIHMHGELLKVRCSQSGQVLDWTGDVTPEDKCHCCQFPAPLRPHVVWFGEMPLGMDEIYMALSMADIFIAIGTSGHVYPAAGFVHEAKLHGAHTVELNLEPSQVGNEFAEKYYGPASQVVPEFVEKLLKGLKAGSIA
Consider B1, for which the DLR activity [rel. to wild-type] (rel. to wild-type) in data set [1] turned out to be 0.49; in data set [2], 10.8; in data set [3] it was 5.73; in data set [4], 2.88.

B2: Dealocase-2 (protein)
chain: B1 chain with S37G, W53Y, W56G
For B2, the DLR activity [rel. to wild-type] (rel. to wild-type) in data set [1] is 1.19; in data set [2] it was 10.2; in data set [3], 2.11; in data set [4], 0.77.

B3: Debocylase-1 (protein)
chain: B1 chain with S37A, W53Y, W56R, V148L
B3: the DLR activity [rel. to wild-type] (rel. to wild-type) in data set [1] amounted to 1.25; in data set [2], 8.35; in data set [3] it was 2.9; in data set [4] it was 8.65.

B4: Dealocase-3 (protein)
chain: B1 chain with S37A, W53Y, W56R, V92S, V148L
For B4, the DLR activity [rel. to wild-type] (rel. to wild-type) in data set [1] was found to be 0.35; in data set [2], 6; in data set [3], 1; in data set [4], 0.65.

B5: Decrotonylase-1 (protein)
chain: B1 chain with S37R, W53G, W56T, V92R, V148L
For B5, the DLR activity [rel. to wild-type] (rel. to wild-type) is 0 in data set [1], 0.02 in data set [2], 0.1 in data set [3] and 0.04 in data set [4].
